Measured values taken from patent US20200079833A1 (AstraZeneca / MedImmune, published 2020).
Starred links: 1 amine or outer side, 2 acyl side, 3 side chain; linkers in the order of their positions; H or OH if unused. Non-standard residues stand in square brackets, D forms with d. Groups on a side chain read outwards from the residue. Primed or numbered codes have the meaning given here. No end group written: not given here. *: point of attachment. γGlu = O=C(O)[C@H](CCC(=O)[*:2])N[*:1]; Stearoyl = CCCCCCCCCCCCCCCCCC(=O)*; Palmitoyl = CCCCCCCCCCCCCCCC(=O)*; αMeF = C[C@](N)(Cc1ccccc1)C(=O)O; αMeK = C[C@](N)(CCCCN)C(=O)O; αMeS = C[C@](N)(CO)C(=O)O; PEG2′ = not defined here; Aib = CC(C)(N)C(=O)O

T1: glucose-dependent insulinotropic peptide (gastric inhibitory polypeptide) receptor (GIPR) (human, UniProt P48546 22-466)
T1 sequence (looked up): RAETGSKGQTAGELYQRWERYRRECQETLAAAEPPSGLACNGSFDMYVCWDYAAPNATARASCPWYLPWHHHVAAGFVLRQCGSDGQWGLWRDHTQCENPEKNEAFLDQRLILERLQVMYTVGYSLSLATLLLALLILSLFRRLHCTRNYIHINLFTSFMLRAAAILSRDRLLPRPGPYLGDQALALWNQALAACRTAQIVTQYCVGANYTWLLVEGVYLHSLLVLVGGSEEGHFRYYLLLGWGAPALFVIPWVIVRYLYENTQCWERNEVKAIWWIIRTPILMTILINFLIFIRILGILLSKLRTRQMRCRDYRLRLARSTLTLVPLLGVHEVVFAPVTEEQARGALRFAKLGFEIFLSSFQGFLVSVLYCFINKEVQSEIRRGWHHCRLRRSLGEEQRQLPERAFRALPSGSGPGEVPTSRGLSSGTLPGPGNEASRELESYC


Tests used:
Assay in all cases: cell-based or functional assay
[1] = target: glucagon receptor (GCGR) (human, UniProt P47871 26-477)
Sequence of glucagon receptor (GCGR) (P47871 26-477): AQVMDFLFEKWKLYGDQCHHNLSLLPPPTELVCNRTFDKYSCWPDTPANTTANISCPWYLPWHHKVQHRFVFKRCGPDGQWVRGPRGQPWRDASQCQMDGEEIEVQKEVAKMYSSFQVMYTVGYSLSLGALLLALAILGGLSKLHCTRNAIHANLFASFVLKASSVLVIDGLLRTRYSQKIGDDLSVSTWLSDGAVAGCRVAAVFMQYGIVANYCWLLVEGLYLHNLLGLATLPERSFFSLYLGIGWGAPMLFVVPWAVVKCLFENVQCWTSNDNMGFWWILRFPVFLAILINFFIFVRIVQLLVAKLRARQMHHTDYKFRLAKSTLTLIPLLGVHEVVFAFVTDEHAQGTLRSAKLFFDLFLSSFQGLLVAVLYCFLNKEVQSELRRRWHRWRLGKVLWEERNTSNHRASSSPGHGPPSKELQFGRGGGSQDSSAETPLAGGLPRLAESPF

[2] = target: T1, glucose-dependent insulinotropic …
[3] = target: GLP-1 receptor (GLP-1R) (human, UniProt P43220 24-463)

Row | cAMP Primary assay EC50 Gluc-R [1] [nM] | cAMP Primary assay EC50 Gluc-R (2nd) [1] [nM] | cAMP Primary assay EC50 GIP-R [2] [nM] | cAMP Primary assay EC50 GIP-R (2nd) [2] [nM] | cAMP Mean pM GLP-1R [3] [pM] | cAMP Primary assay EC50 GLP-1R n1 [3] [nM] | cAMP Primary assay EC50 GLP-1R n2 [3] [nM] | Binder
1 | 25 | 25.2 | 25 | 25.2 | 22 | 0.024 | 0.0206 | H[Aib]EGS[αMeF]TSDV[αMeS]S[αMeF]LEGEAA[αMeK]E[αMeF]IA[αMeF]VK([PEG2′-PEG2′-γGlu-Stearoyl])[αMeK]GG-NH2 [SEQ ID NO 102]
2 | 25 | 25 | 25 | 25 | 18 | 0.021 | 0.0148 | H[Aib]EGS[αMeF]TSDV[αMeS]S[αMeF]LEGEAA[αMeK]E[αMeF]IK([PEG2′-PEG2′-γGlu-Stearoyl])[αMeF]VV[αMeK]GG-NH2 [SEQ ID NO 105]
3 | 28 | 28 | 28 | 28 | 224 | 0.26 | 0.19 | H[Aib]EGK([γGlu-Palmitoyl])[αMeF]TSDV[αMeS]S[αMeF]LEGEAA[αMeK]E[αMeF]IA[αMeF]VV[αMeK]GG-NH2 (N-terminus assumed; SMILES CCCCCCCCCCCCCCCC(=O)N[C@@H](CCC(=O)NCCCC[C@H](NC(=O)CNC(=O)[C@H](CCC(=O)O)NC(=O)C(C)(C)NC(=O)[C@@H](N)Cc1c[nH]cn1)C(=O)N[C@@](C)(Cc1ccccc1)C(=O)N[C@H](C(=O)N[C@@H](CO)C(=O)N[C@@H](CC(=O)O)C(=O)N[C@H](C(=O)N[C@@](C)(CO)C(=O)N[C@@H](CO)C(=O)N[C@@](C)(Cc1ccccc1)C(=O)N[C@@H](CC(C)C)C(=O)N[C@@H](CCC(=O)O)C(=O)NCC(=O)N[C@@H](CCC(=O)O)C(=O)N[C@@H](C)C(=O)N[C@@H](C)C(=O)N[C@@](C)(CCCCN)C(=O)N[C@@H](CCC(=O)O)C(=O)N[C@@](C)(Cc1ccccc1)C(=O)N[C@H](C(=O)N[C@@H](C)C(=O)N[C@@](C)(Cc1ccccc1)C(=O)N[C@H](C(=O)N[C@H](C(=O)N[C@@](C)(CCCCN)C(=O)NCC(=O)NCC(N)=O)C(C)C)C(C)C)[C@@H](C)CC)C(C)C)[C@@H](C)O)C(=O)O) [SEQ ID NO 95]
4 | 25 | 25.3 | 25 | 25.3 | 6140 | 6.5 | 5.79 | H[Aib]EGS[αMeF]TSDV[αMeS]S[αMeF]LEGEAA[αMeK]E[αMeF]K([PEG2′-PEG2′-γGlu-Stearoyl])A[αMeF]VV[αMeK]GG-NH2 [SEQ ID NO 106]
5 | 25 | 25.4 | 25 | 25.4 | 55 | 0.058 | 0.0512 | H[Aib]EGS[αMeF]TSDV[αMeS]S[αMeF]LEGEAA[αMeK]E[αMeF]IA[αMeF]VVK([PEG2′-PEG2′-γGlu-Stearoyl])GG-NH2 [SEQ ID NO 101]
6 | 28 | 28 | 28 | 28 | 27800 | 28 | 28 | H[Aib]K([γGlu-Palmitoyl])GS[αMeF]TSDV[αMeS]S[αMeF]LEGEAA[αMeK]E[αMeF]IA[αMeF]VV[αMeK]GG-NH2 (N-terminus assumed; SMILES CCCCCCCCCCCCCCCC(=O)N[C@@H](CCC(=O)NCCCC[C@H](NC(=O)C(C)(C)NC(=O)[C@@H](N)Cc1c[nH]cn1)C(=O)NCC(=O)N[C@@H](CO)C(=O)N[C@@](C)(Cc1ccccc1)C(=O)N[C@H](C(=O)N[C@@H](CO)C(=O)N[C@@H](CC(=O)O)C(=O)N[C@H](C(=O)N[C@@](C)(CO)C(=O)N[C@@H](CO)C(=O)N[C@@](C)(Cc1ccccc1)C(=O)N[C@@H](CC(C)C)C(=O)N[C@@H](CCC(=O)O)C(=O)NCC(=O)N[C@@H](CCC(=O)O)C(=O)N[C@@H](C)C(=O)N[C@@H](C)C(=O)N[C@@](C)(CCCCN)C(=O)N[C@@H](CCC(=O)O)C(=O)N[C@@](C)(Cc1ccccc1)C(=O)N[C@H](C(=O)N[C@@H](C)C(=O)N[C@@](C)(Cc1ccccc1)C(=O)N[C@H](C(=O)N[C@H](C(=O)N[C@@](C)(CCCCN)C(=O)NCC(=O)NCC(N)=O)C(C)C)C(C)C)[C@@H](C)CC)C(C)C)[C@@H](C)O)C(=O)O) [SEQ ID NO 97]
7 | 25 | 24.9 | 25 | 24.9 | 54 | 0.058 | 0.0493 | H[Aib]EGS[αMeF]TSDV[αMeS]S[αMeF]LEGEAA[αMeK]E[αMeF]IA[αMeF]VV[αMeK]GK([PEG2′-PEG2′-γGlu-Stearoyl])-NH2 [SEQ ID NO 99]
8 | 27 | 27 | 27 | 27 | 746 | 0.92 | 0.57 | H[Aib]EK([γGlu-Palmitoyl])S[αMeF]TSDV[αMeS]S[αMeF]LEGEAA[αMeK]E[αMeF]IA[αMeF]VV[αMeK]GG-NH2 (N-terminus assumed; SMILES CCCCCCCCCCCCCCCC(=O)N[C@@H](CCC(=O)NCCCC[C@H](NC(=O)[C@H](CCC(=O)O)NC(=O)C(C)(C)NC(=O)[C@@H](N)Cc1c[nH]cn1)C(=O)N[C@@H](CO)C(=O)N[C@@](C)(Cc1ccccc1)C(=O)N[C@H](C(=O)N[C@@H](CO)C(=O)N[C@@H](CC(=O)O)C(=O)N[C@H](C(=O)N[C@@](C)(CO)C(=O)N[C@@H](CO)C(=O)N[C@@](C)(Cc1ccccc1)C(=O)N[C@@H](CC(C)C)C(=O)N[C@@H](CCC(=O)O)C(=O)NCC(=O)N[C@@H](CCC(=O)O)C(=O)N[C@@H](C)C(=O)N[C@@H](C)C(=O)N[C@@](C)(CCCCN)C(=O)N[C@@H](CCC(=O)O)C(=O)N[C@@](C)(Cc1ccccc1)C(=O)N[C@H](C(=O)N[C@@H](C)C(=O)N[C@@](C)(Cc1ccccc1)C(=O)N[C@H](C(=O)N[C@H](C(=O)N[C@@](C)(CCCCN)C(=O)NCC(=O)NCC(N)=O)C(C)C)C(C)C)[C@@H](C)CC)C(C)C)[C@@H](C)O)C(=O)O) [SEQ ID NO 96]
9 | 28 | 28 | 28 | 28 | 27500 | 28 | 28 | HK([γGlu-Palmitoyl])EGS[αMeF]TSDV[αMeS]S[αMeF]LEGEAA[αMeK]E[αMeF]IA[αMeF]VV[αMeK]GG-NH2 [SEQ ID NO 98]
10 | 26 | 25.6 | 26 | 25.6 | 5 | 0.0059 | 0.00511 | H[Aib]EGS[αMeF]TSDV[αMeS]S[αMeF]LEGEAA[αMeK]E[αMeF]IAK([PEG2′-PEG2′-γGlu-Stearoyl])VV[αMeK]GG-NH2 [SEQ ID NO 104]
11 | 25 | 25.4 | 25 | 25.4 | 4 | 0.0038 | 0.00346 | H[Aib]EGS[αMeF]TSDV[αMeS]S[αMeF]LEGEAA[αMeK]K([PEG2′-PEG2′-γGlu-Stearoyl])[αMeF]IA[αMeF]VV[αMeK]GG-NH2 [SEQ ID NO 108]
12 | 25 | 24.9 | 25 | 24.9 | 15 | 0.016 | 0.0146 | H[Aib]EGS[αMeF]TSDV[αMeS]S[αMeF]LEGEAA[αMeK]E[αMeF]IA[αMeF]VV[αMeK]K([PEG2′-PEG2′-γGlu-Stearoyl])G-NH2 [SEQ ID NO 100]
13 | 25 | 25.2 | 25 | 25.2 | 5 | 0.0047 | 0.00456 | H[Aib]EGS[αMeF]TSDV[αMeS]S[αMeF]LEGEAA[αMeK]E[αMeF]IA[αMeF]K([PEG2′-PEG2′-γGlu-Stearoyl])V[αMeK]GG-NH2 [SEQ ID NO 103]
